Biological target: T1, Di13_B2L2B4, cyclic pseudo-dihedral B component (construct number 2 of Table 3)
T1 construct: also called cyclic B
Assay: negative stain TEM, unlabelled construct

B1: A component of design #13 (D3 homooligomer, designed from 1d2t) (designed binder)
chain: MGHHHHHHGGLALVATGNDTTTKPDLYYLKNSEAINSLALLPPPPAVGSIAFLNDQAMYEQGRLLRNTERGKLAAEDANLSSGGVANAFSGAFGSPITEKDAPALHKLLTNMIEDAGDLATRSAKDHYMRIRPFAFYGVSTCNTTEQDKLSKNGSYPSGHTSIGWATALVLAEINPQRQNEILKRGYELGQSRVICGYHWQSDVDAARVVGSAVVATLHTNPEFQAQLIKAKIEFKQHQKEL
notes: also called component A; dihedral A
binding result: binds

Reference: US20230287402A1 (University of Washington, published 2023)
